Data: patent US20230322857A1, “RECOMBINANTLY ENGINEERED POLYPEPTIDES CAPABLE OF RECYCLING NONCANONICAL COFACTORS” (The Regents of the University of California, priority 2022, published 2023)

Tests used:
[1] = TS-PTDH total turnover number determination (NMN(H) cycling with XenA, KIP to levodione); format: biochemical; conditions: averaged over the 16-day reaction
Procedure: TS-PTDH Total Turnover Number Determination. Reactions to determine the TTN of TS-PTDH LY-13 (see FIG. 10B) were performed at 1 mL volumes in 2 mL glass vials secured with a PTFE-lined screw cap. Reactions were incubated without shaking at 30° C. Reaction buffer was comprised of 200 mM MOPS at pH 7.5, 100 mM sodium phosphite, 6 mM NMN^+, and 33 mM ketoisophorone (KIP). To initiate the reaction, purified TS-PTDH LY-13 and XenA were spiked into the reaction mixture to a final concentration of 0.25 μM and 18.8 μM, respectively. The reactions were sampled intermittently by removing 50 μL of reaction mixture and mixing with 100 μL of ethyl acetate containing 200 mg/L1-octanol. Samples were vortexed, centrifuged, and the ethyl acetate fraction was transferred to a GC vial for GC-FID analysis. GC-FID analysis for KIP biotransformation efficiency was performed on an Agilent 6850 GD using an Agilent DB-WAX column (30 m×0.56 mm×1 μm). Helium was used as a carrier gas. The inlet and detector were held at 250 and 260° C., respectively. 5 μL of sample was injected with a 2:1 split ratio. […] TTN was calculated by the moles of levodione produced divided by the moles of LY-13 supplied to the reaction system. Total turnover frequency was determined by dividing TTN by the total reaction time of 384 h. Levodione concentration was determined by correlating sample response to a standard curve of known values.

[2] = system: E. coli SHuffle strain; assay: Recapitulation of growth restoration with TS-PTDH variants in SHuffle strain; format: cell-based, Escherichia coli; conditions: spotted onto agar selection plates
Procedure: Selection of TS-PTDH Library. A total of 50 μL pre-made SHuffle/pLZ311 or SHuffle/pLZ312 electro-competent cells were transformed with 2 μL TS-PTDH A155N-E175-A176-L208 NNK library DNA (pLZ316) via electroporation as described above. After rescue in SOC media for 1 h, cultures were combined in 10 mL 2×YT with 10 g/L glucose, 0.5% arabinose, kanamycin and ampicillin. 0.2, or 1 μL of culture was immediately taken from the culture and plated on an 2×YT agar plates with kanamycin and ampicillin. The plate was incubated at 37° C. overnight, and the number of colonies formed was counted to estimate the library size. The liquid cultures were incubated at 37° C. with shaking for 10 h. Cells (1 mL) were washed 3 times and re-suspended in M9 Buffer. Targeted serial dilutions of cells were prepared in M9 buffer and 5 μL aliquots were dispensed in series on an agar plate of M9 selection media containing 0.5 mM diamide, 5 or 1 g/L yeast extract, 10 g/L glucose, 0.5% arabinose, 0.5 mM IPTG, 10 g/L sodium phosphite, kanamycin, ampicillin, and 5 mM NMN^+. Selection plates were incubated at 37° C., and photographs were taken to document growth progress. The independent transformants sampled was calculated as 2.4×10^6 and 2.5×10^6 colonies when plated on 5 and 1 g/L yeast extract, respectively. TS-PTDH and the template of the library, TS-PTDH A155N, were cultured in the same conditions as controls. The colonies were numbered by the order of appearance. The selected cells were re-streaked on fresh agar plate with identical media and incubated until single colonies formed on the plate. Variants that cannot forma single colony may be false positives. After extracting the plasmids from each re-streaked colony, the chosen TS-PTDH variants were amplified and moved into the pQElac vector containing a N-terminal 6×His tag for protein purification and characterization. […] 2 μL of a serial dilution of cells were deposited onto a growth selection plate and grown at 37° C.

B1: LY-13: phosphite dehydrogenase variant with A155N, E175A, A176F (SEQ ID NO: 6) (protein)
chain: MLPKLVITHRVHEEILQLLAPHCELITNQTDSTLTREEILRRCRDAQAMMAFMPDRVDADFLQACPELRVIGCALKGFDNFDVDACTARGVWLTFVPDLLTVPTAELAIGLAVGLGRHLRAADAFVRSGKFRGWQPRFYGTGLDNATVGFLGMGNIGLAMADRLQGWGATLQYHAFKALDTQTEQRLGLRQVACSELFASSDFILLALPLNADTLHLVNAELLALVRPGALLVNPCRGSVVDEAAVLAALERGQLGGYAADVFEMEDWARADRPQQIDPALLAHPNTLFTPHIGSAVRAVRLEIERCAAQNILQALAGERPINAVNRLPKANPAAD
- Total Turnover Frequency [1]: ~117 turnovers per hour
- growth restoration, co-expression with NMNH-specific Gor Ortho [2]: markedly improved growth restoration
- growth restoration, co-expression with NMNH-specific Gor Ortho ([2]; listed as TS-PTDH LY-13): improved growth compared to TS-PTDH A155N
